Tests used:
[1] = target: human CD147 on the surface of human cell lines (human) (UniProt P35613); assay: cell-based or functional assay
[2] = target: human CD147 on the surface of human cell lines (human) (UniProt P35613); assay: FACS on human KYSE-70 esophageal epithelial cell line, Alexa Fluor 647 goat anti-human IgG detection

B1: humanized anti-human CD147 monoclonal antibody hu 3A11 Lc1/Hc1 (antibody, V domains shown)
VH: EVQLVESGGGLVQPGGSLRLSCAASGFTFSNYWMDWVRQAPGKGLEWVGEIRLKSYNYATHYAASVKGRFTISRDDSKNSVYLQMNSLKTEDTAVYYCTAAGTDYWGQGTLVTVSS
VL: DIQMTQSPSSLSASVGDRVTITCRASQSVRTDVGWYQQKPGKAPKLLIYYSSNRYTGVPSRFSGSGSGTDFTLTISSLQPEDFATYYCQQDYSSPYTFGQGTKLEIK
B1 gave an EC50 of cytotoxicity, A253 cells (with vc-MMAE secondary antibody) [1] of under 1 nM, an EC50 of cytotoxicity, BHY cells (with vc-MMAE secondary antibody) [1] of under 1 nM and an EC50 of cytotoxicity, Detroit562 cells (with vc-MMAE secondary antibody) [1] of 0.008 nM. It also gave an EC50 of cytotoxicity, EFO-21 cells (with vc-MMAE secondary antibody) [1] of 1.4 nM, an EC50 of cytotoxicity, H69 cells (with vc-MMAE secondary antibody) [1] of 1 nM and an EC50 of cytotoxicity, H292 cells (with vc-MMAE secondary antibody) [1] of 0.07 nM. The EC50 of cytotoxicity, H358 cells (with vc-MMAE secondary antibody) [1] was 0.09 nM, the EC50 of cytotoxicity, H520 cells (with vc-MMAE secondary antibody) [1] was 11.2 nM and the EC50 of cytotoxicity, H1581 cells (with vc-MMAE secondary antibody) [1] was 0.039 nM. For the same binder, the EC50 of cytotoxicity, H1975 cells (with vc-MMAE secondary antibody) [1] was 0.09 nM, the EC50 of cytotoxicity, H2405 cells (with vc-MMAE secondary antibody) [1] was 0.3 nM and the EC50 of cytotoxicity, H2444 cells (with vc-MMAE secondary antibody) [1] was 1.8 nM. The EC50 of cytotoxicity, HCC 70 cells (with vc-MMAE secondary antibody) [1] was 0.94 nM, the EC50 of cytotoxicity, HCC1143 cells (with vc-MMAE secondary antibody) [1] was under 1 nM and the EC50 of cytotoxicity, HCC 1806 cells (with vc-MMAE secondary antibody) [1] was 0.68 nM. For the same binder, the EC50 of cytotoxicity, HCC1937 cells (with vc-MMAE secondary antibody) [1] was under 1 nM, the EC50 of cytotoxicity, HCC1954 cells (with vc-MMAE secondary antibody) [1] was under 1 nM and the EC50 of cytotoxicity, HCT 116 cells (with vc-MMAE secondary antibody) [1] was 1.8 nM. It also gave an EC50 of cytotoxicity, HPAC cells (with vc-MMAE secondary antibody) [1] of 0.21 nM, an EC50 of cytotoxicity, HPAF2 cells (with vc-MMAE secondary antibody) [1] of under 1 nM and an EC50 of cytotoxicity, KYSE70 cells (with vc-MMAE secondary antibody) [1] of 0.13 nM. The EC50 of cytotoxicity, KYSE150 cells (with vc-MMAE secondary antibody) [1] was 1.6 nM, the EC50 of cytotoxicity, LOVO cells (with vc-MMAE secondary antibody) [1] was under 1 nM and the EC50 of cytotoxicity, LS174T cells (with vc-MMAE secondary antibody) [1] was 1 nM. For the same binder, the EC50 of cytotoxicity, LS411N cells (with vc-MMAE secondary antibody) [1] was under 1 nM, the EC50 of cytotoxicity, PC3 cells (with vc-MMAE secondary antibody) [1] was under 1 nM and the EC50 of cytotoxicity, RT11-2/84 cells (with vc-MMAE secondary antibody) [1] was 1.94 nM. The EC50 of cytotoxicity, SCC1 cells (with vc-MMAE secondary antibody) [1] was 0.14 nM, the EC50 of cytotoxicity, SCC9 cells (with vc-MMAE secondary antibody) [1] was 0.37 nM and the EC50 of cytotoxicity, SCC25 cells (with vc-MMAE secondary antibody) [1] was 0.2 nM. It also gave an EC50 of cytotoxicity, SKOV3 cells (with vc-MMAE secondary antibody) [1] of 0.95 nM, an EC50 of cytotoxicity, SW1417 cells (with vc-MMAE secondary antibody) [1] of 0.8 nM and an EC50 of cytotoxicity, aspc1 cells (with vc-MMAE secondary antibody) [1] of 20.5 nM. It also gave an EC50 of cytotoxicity, miapaca1 cells (with vc-MMAE secondary antibody) [1] of 0.65 nM, an EC50 of cytotoxicity, sw48 cells (with vc-MMAE secondary antibody) [1] of under 1 nM and an EC50 of cytotoxicity, sw480 cells (with vc-MMAE secondary antibody) [1] of under 1 nM. The EC50 of in vitro cytotoxicity, A253 cells (with vc-MMAE secondary antibody) [1] was under 1 nM, the EC50 of in vitro cytotoxicity, AGS cells (with vc-MMAE secondary antibody) [1] was 0.09 nM and the EC50 of in vitro cytotoxicity, BHY cells (with vc-MMAE secondary antibody) [1] was under 1 nM. For the same binder, the EC50 of in vitro cytotoxicity, Detroit562 cells (with vc-MMAE secondary antibody) [1] was 0.008 nM, the EC50 of in vitro cytotoxicity, EFO-21 cells (with vc-MMAE secondary antibody) [1] was 1.4 nM and the EC50 of in vitro cytotoxicity, ESO26 cells (with vc-MMAE secondary antibody) [1] was 0.06 nM. It also gave an EC50 of in vitro cytotoxicity, FLO-1 cells (with vc-MMAE secondary antibody) [1] of 0.51 nM, an EC50 of in vitro cytotoxicity, H69 cells (with vc-MMAE secondary antibody) [1] of 1 nM and an EC50 of in vitro cytotoxicity, H226 cells (with vc-MMAE secondary antibody) [1] of 0.45 nM. For the same binder, the EC50 of in vitro cytotoxicity, H292 cells (with vc-MMAE secondary antibody) [1] was 0.07 nM, the EC50 of in vitro cytotoxicity, H358 cells (with vc-MMAE secondary antibody) [1] was 0.09 nM and the EC50 of in vitro cytotoxicity, H520 cells (with vc-MMAE secondary antibody) [1] was 11.2 nM. It also gave an EC50 of in vitro cytotoxicity, H1581 cells (with vc-MMAE secondary antibody) [1] of 0.039 nM, an EC50 of in vitro cytotoxicity, H1975 cells (with vc-MMAE secondary antibody) [1] of 0.09 nM and an EC50 of in vitro cytotoxicity, H2052 cells (with vc-MMAE secondary antibody) [1] of 0.03 nM. For the same binder, the EC50 of in vitro cytotoxicity, H2405 cells (with vc-MMAE secondary antibody) [1] was 0.3 nM, the EC50 of in vitro cytotoxicity, H2444 cells (with vc-MMAE secondary antibody) [1] was 1.8 nM and the EC50 of in vitro cytotoxicity, H2452 cells (with vc-MMAE secondary antibody) [1] was 0.94 nM. For the same binder, the EC50 of in vitro cytotoxicity, HCC 70 cells (with vc-MMAE secondary antibody) [1] was 0.94 nM, the EC50 of in vitro cytotoxicity, HCC1143 cells (with vc-MMAE secondary antibody) [1] was under 1 nM and the EC50 of in vitro cytotoxicity, HCC 1806 cells (with vc-MMAE secondary antibody) [1] was 0.68 nM. The EC50 of in vitro cytotoxicity, HCC1937 cells (with vc-MMAE secondary antibody) [1] was under 1 nM, the EC50 of in vitro cytotoxicity, HCC1954 cells (with vc-MMAE secondary antibody) [1] was under 1 nM and the EC50 of in vitro cytotoxicity, HCT 116 cells (with vc-MMAE secondary antibody) [1] was 1.8 nM. The EC50 of in vitro cytotoxicity, HPAC cells (with vc-MMAE secondary antibody) [1] was 0.21 nM, the EC50 of in vitro cytotoxicity, HPAF2 cells (with vc-MMAE secondary antibody) [1] was under 1 nM and the EC50 of in vitro cytotoxicity, HT29 (WIDR) cells (with vc-MMAE secondary antibody) [1] was 0.87 nM. The EC50 of in vitro cytotoxicity, Hs 746T cells (with vc-MMAE secondary antibody) [1] was 0.06 nM, the EC50 of in vitro cytotoxicity, KYSE70 cells (with vc-MMAE secondary antibody) [1] was 0.13 nM and the EC50 of in vitro cytotoxicity, KYSE150 cells (with vc-MMAE secondary antibody) [1] was 0.88 nM. For the same binder, the EC50 of in vitro cytotoxicity, KYSE410 cells (with vc-MMAE secondary antibody) [1] was 1.35 nM, the EC50 of in vitro cytotoxicity, LOVO cells (with vc-MMAE secondary antibody) [1] was under 1 nM and the EC50 of in vitro cytotoxicity, LS174T cells (with vc-MMAE secondary antibody) [1] was 1 nM. For the same binder, the EC50 of in vitro cytotoxicity, LS411N cells (with vc-MMAE secondary antibody) [1] was under 1 nM, the EC50 of in vitro cytotoxicity, MSTO-211H cells (with vc-MMAE secondary antibody) [1] was 0.37 nM and the EC50 of in vitro cytotoxicity, OACM5.1 C cells (with vc-MMAE secondary antibody) [1] was 1.1 nM. It also gave an EC50 of in vitro cytotoxicity, OE33 cells (with vc-MMAE secondary antibody) [1] of 0.29 nM, an EC50 of in vitro cytotoxicity, PC3 cells (with vc-MMAE secondary antibody) [1] of under 1 nM and an EC50 of in vitro cytotoxicity, RT11-2/84 cells (with vc-MMAE secondary antibody) [1] of 1.94 nM. It also gave an EC50 of in vitro cytotoxicity, SCC1 cells (with vc-MMAE secondary antibody) [1] of 0.14 nM, an EC50 of in vitro cytotoxicity, SCC9 cells (with vc-MMAE secondary antibody) [1] of 0.37 nM and an EC50 of in vitro cytotoxicity, SCC25 cells (with vc-MMAE secondary antibody) [1] of 0.2 nM. It also gave an EC50 of in vitro cytotoxicity, SK-GT-4 cells (with vc-MMAE secondary antibody) [1] of under 0.1 nM, an EC50 of in vitro cytotoxicity, SKBR3 cells (with vc-MMAE secondary antibody) [1] of 0.38 nM and an EC50 of in vitro cytotoxicity, SKOV3 cells (with vc-MMAE secondary antibody) [1] of 0.95 nM. It also gave an EC50 of in vitro cytotoxicity, SNU-1 cells (with vc-MMAE secondary antibody) [1] of 0.21 nM, an EC50 of in vitro cytotoxicity, SNU-5 cells (with vc-MMAE secondary antibody) [1] of 0.11 nM and an EC50 of in vitro cytotoxicity, SNU-16 cells (with vc-MMAE secondary antibody) [1] of 1.14 nM. It also gave an EC50 of in vitro cytotoxicity, SW1417 cells (with vc-MMAE secondary antibody) [1] of 0.8 nM, an EC50 of in vitro cytotoxicity, aspc1 cells (with vc-MMAE secondary antibody) [1] of 20.5 nM and an EC50 of in vitro cytotoxicity, miapaca1 cells (with vc-MMAE secondary antibody) [1] of 0.65 nM. It also gave an EC50 of in vitro cytotoxicity, sw48 cells (with vc-MMAE secondary antibody) [1] of under 1 nM, an EC50 of in vitro cytotoxicity, sw480 cells (with vc-MMAE secondary antibody) [1] of under 1 nM and a Kd [2] of 1.65 nM.

— US20180303952A1
